± gives the uncertainty stated by the source.
Assay: self-splicing fitness, log relative to wild type (ln ratio); higher = more splicing; Tetrahymena group I intron in knt gene, E. coli kanamycin selection, DiMSum; sequences stand for … in CUCUCU…GGAGGGAAAAGUUAUCAGGCAUGCACCUGGUAGCUAGUCUUUAAACCAAUAGAUUGCAUCGGUUUAAAAGGCAAGACCGUCAAAUUGCGGGAAAGGGGUCAACAGCCGUUCAGUACCAAGUCUCAGGGGAAACUUUGAGAUGGCCUUGCAAAGGGUAUGGUAAUAAGCUGACGGACAUGGUCCUAACCACGCAGCCAAGUCCUAAGUCAACAGAUCUUCUGUUGAUAUGGAUGCAGUUCACAGACUAAAUGUCGGUCGGGGAAGAUGUAUUCUUCUCAUAAGAUAUAGUCGGACCUCUCCUUAAUGGGAGCUAGCGGAUGAAGUGAUGCAACACUGGAGCCGCUGGGAACUAAUUUGUAUGCGAAAGUAUAUUGAUUAGUUUUGGAGUACUCGUGGUCG
Summary of the method: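 DiMSum derived fitness as the error-weighted combination of fold changes across replicates, kanamycin versus no kanamycin, normalised to wild type. E. coli BL21(DE3) held the library, which randomised all eight P1ex-region intron nucleotides within the knt kanamycin-resistance gene on pET-22b(+). Six replicate transformations grew overnight at 37°C or 30°C on LB agar with or without 25 μg/mL kanamycin, also containing 100 μg/mL carbenicillin, 50 μM IPTG and 0.2% rhamnose, and pooled colonies were amplicon-sequenced on an Illumina HiSeq 2500.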

Sequence | self-splicing fitness (ln) (30 °C) | self-splicing fitness (ln) (37 °C)
UUGUAGCAAUAUUACGUACG | -1.24 ± 0.12 | -0.138 ± 0.16
AGCUAGCAAUAUUACGGCCA | -0.689 ± 0.15 | 0.469 ± 0.18
AGGAAGCAAUAUUACGUAGU | -2.73 ± 0.15 | -2.63 ± 0.21
GCUGAGCAAUAUUACGUGUC | -2.78 ± 0.18 | -1.3 ± 0.16
CACCAGCAAUAUUACGGGAA | -1.05 ± 0.059 | -1.07 ± 0.075
UUGUAGCAAUAUUACGUGGU | -3.35 ± 0.3 | -3.67 ± 0.42
ACUCAGCAAUAUUACGCGAA | -1.48 ± 0.061 | -0.686 ± 0.069
CAGCAGCAAUAUUACGCAAA | -3.14 ± 0.34 | -1.77 ± 0.23
AUCCAGCAAUAUUACGGAUG | -2.21 ± 0.094 | -1.68 ± 0.12
AAGCAGCAAUAUUACGAUCG | -2.29 ± 0.14 | -0.905 ± 0.12
CCAGAGCAAUAUUACGUUAU | -3.68 ± 0.24 | -2.2 ± 0.2
UUCAAGCAAUAUUACGACAG | -1.5 ± 0.11 | -1.1 ± 0.095
AUCAAGCAAUAUUACGUAAG | -2.05 ± 0.097 | -1.45 ± 0.13
ACCAAGCAAUAUUACGUAUA | -3.38 ± 0.16 | -2.36 ± 0.12
UGAUAGCAAUAUUACGCUUA | -2.07 ± 0.12 | -0.143 ± 0.12
CACAAGCAAUAUUACGAACG | -0.561 ± 0.055 | 0.286 ± 0.079
CACGAGCAAUAUUACGUGGA | -3.08 ± 0.17 | -2.2 ± 0.17
UGAAAGCAAUAUUACGCCUG | -0.546 ± 0.11 | -0.244 ± 0.12
AUAGAGCAAUAUUACGGGAU | -1.54 ± 0.11 | -1.87 ± 0.2
AGUAAGCAAUAUUACGGCCU | 0.0223 ± 0.17 | -0.034 ± 0.26
UAGCAGCAAUAUUACGGACU | -1.07 ± 0.1 | -0.713 ± 0.15
AGCAAGCAAUAUUACGCGCA | -0.742 ± 0.07 | 0.548 ± 0.11
UCAUAGCAAUAUUACGGACA | -2.48 ± 0.21 | -0.42 ± 0.15
AAUUAGCAAUAUUACGUCAU | -2.24 ± 0.18 | -1.7 ± 0.17
UAUGAGCAAUAUUACGUAGC | -3.71 ± 0.3 | -2.5 ± 0.29

Sequence | self-splicing fitness (ln) (30 °C) | self-splicing fitness (ln) (37 °C)
UCGUAGCAAUAUUACGUCCU | -2.04 ± 0.21 | -1.63 ± 0.31
AAGGAGCAAUAUUACGUUGU | -2.61 ± 0.15 | -2.53 ± 0.21
AGACAGCAAUAUUACGAUUA | -1.15 ± 0.062 | -0.971 ± 0.086
GAUGAGCAAUAUUACGACAG | -2.31 ± 0.47 | –
AGAUAGCAAUAUUACGCUUC | -2.66 ± 0.42 | -2.27 ± 0.49
UACGAGCAAUAUUACGCCGC | -2.03 ± 0.41 | -2.1 ± 0.3
UUUUAGCAAUAUUACGUCGA | -0.866 ± 0.12 | 0.0877 ± 0.14
UAGGAGCAAUAUUACGAUGG | -3.36 ± 0.28 | -1.4 ± 0.24
ACCAAGCAAUAUUACGUACU | -0.582 ± 0.049 | -0.135 ± 0.071
CGCUAGCAAUAUUACGGUUU | -1.69 ± 0.053 | -0.856 ± 0.074
UGCAAGCAAUAUUACGCUGU | -3.03 ± 0.19 | -2.93 ± 0.33
ACUUAGCAAUAUUACGCGGU | -3.26 ± 0.41 | -1.84 ± 0.26
GUGAAGCAAUAUUACGCAUC | – | -1.69 ± 0.49
GAUCAGCAAUAUUACGAUGA | -0.0415 ± 0.095 | 0.313 ± 0.12
AUAUAGCAAUAUUACGCUGC | – | -1.74 ± 0.34
CGUGAGCAAUAUUACGUGAU | -3.8 ± 0.24 | -3.21 ± 0.23
AGAGAGCAAUAUUACGGUUC | -4.09 ± 0.37 | -2.11 ± 0.29
CUGCAGCAAUAUUACGAGUG | -0.52 ± 0.053 | 0.112 ± 0.087
AAGCAGCAAUAUUACGCAGU | -3.36 ± 0.23 | -1.52 ± 0.13
CUGAAGCAAUAUUACGAAAG | -0.525 ± 0.12 | -0.0848 ± 0.16
ACCCAGCAAUAUUACGAGCC | -3.18 ± 0.15 | -1.54 ± 0.14
CCCUAGCAAUAUUACGCUUA | -3.78 ± 0.18 | -2.86 ± 0.12
GACCAGCAAUAUUACGUUCA | -0.884 ± 0.1 | -0.163 ± 0.097
CAAAAGCAAUAUUACGCAGA | -2.57 ± 0.25 | -1.49 ± 0.17
ACGGAGCAAUAUUACGCGAG | -2.86 ± 0.13 | -1.35 ± 0.13

Sequence | self-splicing fitness (ln) (30 °C) | self-splicing fitness (ln) (37 °C)
GGCCAGCAAUAUUACGGCGG | -0.775 ± 0.1 | -1.53 ± 0.15
CGACAGCAAUAUUACGUCCA | -0.437 ± 0.066 | -0.321 ± 0.081
CACAAGCAAUAUUACGUCAC | -3.24 ± 0.19 | -2.62 ± 0.22
CCAAAGCAAUAUUACGAAGC | -3.15 ± 0.36 | –
UUUCAGCAAUAUUACGAUAU | -1.88 ± 0.15 | -0.0425 ± 0.12
CAAGAGCAAUAUUACGGUCG | -0.431 ± 0.05 | -0.728 ± 0.065
AGUCAGCAAUAUUACGAAGC | -3.56 ± 0.18 | -2.03 ± 0.17
GGCUAGCAAUAUUACGAAGG | – | -0.668 ± 0.29
CAACAGCAAUAUUACGCCUU | -2.95 ± 0.11 | -1.1 ± 0.081
GUGGAGCAAUAUUACGUCGC | – | -1.71 ± 0.42
UUGAAGCAAUAUUACGAGAU | -3.15 ± 0.18 | -2.87 ± 0.23
AUAAAGCAAUAUUACGAAGG | -2.1 ± 0.081 | -1.41 ± 0.12
AUGGAGCAAUAUUACGUAAG | -2.69 ± 0.2 | -0.735 ± 0.17
GCAGAGCAAUAUUACGGCUA | -1.53 ± 0.14 | -0.385 ± 0.11
UGCGAGCAAUAUUACGUGUA | -2.83 ± 0.11 | -1.01 ± 0.1
GGGCAGCAAUAUUACGAGAU | -3.14 ± 0.23 | -2.41 ± 0.32
GUAUAGCAAUAUUACGGUCU | -1.47 ± 0.11 | -0.548 ± 0.16
GCCUAGCAAUAUUACGACGA | -1.46 ± 0.14 | -0.629 ± 0.13
AGCUAGCAAUAUUACGCUCG | -2.6 ± 0.19 | -1.53 ± 0.17
UUAUAGCAAUAUUACGAUGU | -2.57 ± 0.2 | -1.57 ± 0.23
AGCGAGCAAUAUUACGUAUC | – | -3.38 ± 0.39
ACGCAGCAAUAUUACGUACG | -2.93 ± 0.15 | -0.983 ± 0.13
ACCUAGCAAUAUUACGUCGA | -2.29 ± 0.093 | -0.834 ± 0.091
GCCUAGCAAUAUUACGUUUU | -1.7 ± 0.097 | -0.614 ± 0.12
UAUGAGCAAUAUUACGGCGG | -3.22 ± 0.23 | -1.72 ± 0.26

Sequence | self-splicing fitness (ln) (30 °C) | self-splicing fitness (ln) (37 °C)
GCACAGCAAUAUUACGUUCC | -1.85 ± 0.078 | -0.808 ± 0.11
UCUUAGCAAUAUUACGGUGA | -0.481 ± 0.1 | 0.15 ± 0.1
ACUGAGCAAUAUUACGUAGU | -3.48 ± 0.19 | -2.41 ± 0.25
CAAUAGCAAUAUUACGAAUA | -2.97 ± 0.39 | -3.26 ± 0.32
AGUCAGCAAUAUUACGAAAA | -1.63 ± 0.17 | -1.3 ± 0.2
GUAGAGCAAUAUUACGAUAA | -1.5 ± 0.15 | 0.242 ± 0.19
UAUUAGCAAUAUUACGGUUA | 0.108 ± 0.097 | -0.239 ± 0.11
GUAAAGCAAUAUUACGGAAA | -2.68 ± 0.14 | -1.38 ± 0.18
AAAAAGCAAUAUUACGACUU | 0.0987 ± 0.065 | -0.391 ± 0.085
CUCAAGCAAUAUUACGUAAC | -4.43 ± 0.19 | -2.08 ± 0.15
GAACAGCAAUAUUACGCGGC | -4 ± 0.43 | -1.6 ± 0.23
UCCGAGCAAUAUUACGUUGA | -2.17 ± 0.097 | -0.915 ± 0.087
AGAUAGCAAUAUUACGAGAG | -3.7 ± 0.29 | -2.37 ± 0.25
GGUUAGCAAUAUUACGUUUA | -1.5 ± 0.096 | -0.992 ± 0.088
GAUUAGCAAUAUUACGCUUC | -3.55 ± 0.34 | -1.88 ± 0.29
ACUGAGCAAUAUUACGCGAC | -2.51 ± 0.43 | -1.46 ± 0.29
CACUAGCAAUAUUACGACCA | -1.18 ± 0.14 | -1.69 ± 0.21
AAGUAGCAAUAUUACGCUCA | -0.287 ± 0.076 | 0.5 ± 0.094
GCAUAGCAAUAUUACGUUAC | -2.15 ± 0.41 | -1.85 ± 0.4
CGAAAGCAAUAUUACGGGUC | -4 ± 0.3 | -3.76 ± 0.34
GGCUAGCAAUAUUACGUUCC | -1.62 ± 0.11 | -0.39 ± 0.11
CCGGAGCAAUAUUACGUGAU | -2.17 ± 0.19 | -1.54 ± 0.3

Source: the supplement of paper PMC7877785
